Two substances from patent publication US6491908 can be followed below.

Like-named read-outs stand apart in the source and are kept apart here.

What all share (test): cell-based or functional assay
Experiment [1] addresses CD3 portion of the T cell receptor on Jurkat cells (human) (UniProt P07766).
For experiment [2] the target is unchanged. The source holds these as a separate data set.
Experiment [3] has as its target D^d/zeta chimera (mouse class I MHC D^d fused to the murine T cell receptor zeta chain) (mouse) (UniProt P24161).
For experiment [4], the target named is mouse class I MHC D^d (full length, without signaling molecule) (mouse) (UniProt P01900).
The target in experiment [5] is D^d/zeta chimera (mouse class I MHC D^d fused to the murine T cell receptor zeta chain) (mouse) (UniProt P24161). This is another data set of the same source.
The target in experiment [6] is mouse class I MHC D^d (full length, without signaling molecule) (mouse) (UniProt P01900). The source holds these as a separate data set.

Chain of CD3 portion of the T cell receptor on Jurkat cells (human) (P07766 23-207): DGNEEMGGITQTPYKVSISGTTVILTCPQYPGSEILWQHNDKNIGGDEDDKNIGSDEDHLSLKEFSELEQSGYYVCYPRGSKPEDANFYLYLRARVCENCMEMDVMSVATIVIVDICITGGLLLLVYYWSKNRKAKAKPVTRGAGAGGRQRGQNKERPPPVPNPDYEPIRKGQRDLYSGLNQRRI
Chain of mouse class I MHC D^d (full length, without signaling molecule) (mouse) (P01900 25-365): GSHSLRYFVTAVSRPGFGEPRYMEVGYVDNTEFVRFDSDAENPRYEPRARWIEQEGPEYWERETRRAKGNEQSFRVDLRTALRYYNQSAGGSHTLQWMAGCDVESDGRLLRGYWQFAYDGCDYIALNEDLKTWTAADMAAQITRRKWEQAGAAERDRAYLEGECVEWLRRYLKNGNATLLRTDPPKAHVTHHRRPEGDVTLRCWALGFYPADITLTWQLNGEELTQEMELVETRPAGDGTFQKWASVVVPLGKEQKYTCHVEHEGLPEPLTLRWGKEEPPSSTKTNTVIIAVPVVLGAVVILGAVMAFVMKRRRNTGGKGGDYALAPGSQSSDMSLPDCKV

On to OKT3, an anti-CD3 antibody, for which, in experiment [1], the Proliferation (CPM) of CTLL-2 cells (IL-2 in supernatant of #19 (D^d) Jurkat cells), with PMA is 10900 CPM and the Proliferation (CPM) of CTLL-2 cells (IL-2 in supernatant of #19 (D^d) Jurkat cells), without PMA is 9530 CPM. In experiment [2], the Proliferation (CPM) of CTLL-2 cells (IL-2 in supernatant of untransfected Jurkat cells), with PMA is 2200 CPM and the Proliferation (CPM) of CTLL-2 cells (IL-2 in supernatant of untransfected Jurkat cells), without PMA came out at 1180 CPM.
In experiment [3], anti-D^d monoclonal antibody (34-2-12) gave a Proliferation (CPM) of CTLL-2 cells (IL-2 in supernatant of J11-6 (D^d/zeta) Jurkat cells), with PMA of 16700 CPM and a Proliferation (CPM) of CTLL-2 cells (IL-2 in supernatant of J11-6 (D^d/zeta) Jurkat cells), without PMA of 361 CPM. For the same substance, in experiment [4], the Proliferation (CPM) of CTLL-2 cells (IL-2 in supernatant of #19 (D^d) Jurkat cells), with PMA was determined as 5520 CPM and the Proliferation (CPM) of CTLL-2 cells (IL-2 in supernatant of #19 (D^d) Jurkat cells), without PMA came to 492 CPM. Also, in experiment [5], the Proliferation (CPM) of CTLL-2 cells (IL-2 in supernatant of J11-6 (D^d/zeta) Jurkat cells), with PMA worked out at 26800 CPM; the Proliferation (CPM) of CTLL-2 cells (IL-2 in supernatant of J11-6 (D^d/zeta) Jurkat cells), without PMA was 338 CPM; the cellular proliferation ([3H]TdR) of spleen lymphoid cells of D^d/zeta transgenic mice, anti-D^d + anti-CD8 + anti-CD3 mAbs together was determined as 253000; the cellular proliferation ([3H]TdR) of spleen lymphoid cells of D^d/zeta transgenic mice, anti-D^d + anti-CD8 mAbs together was 242000. In experiment [5], the cellular proliferation ([3H]TdR) of spleen lymphoid cells of D^d/zeta transgenic mice, anti-D^d mAb alone worked out at 303000 and the fold enhancement of proliferation over the D^d alone expressing cells was in the range of 10 to 300 fold. Also, in experiment [6], the cellular proliferation ([3H]TdR) of spleen lymphoid cells of pD^d1 (D^d) transgenic mice, anti-D^d + anti-CD8 + anti-CD3 mAbs together came out at 25000; the cellular proliferation ([3H]TdR) of spleen lymphoid cells of pD^d1 (D^d) transgenic mice, anti-D^d + anti-CD8 mAbs together came out at 1240; the cellular proliferation ([3H]TdR) of spleen lymphoid cells of pD^d1 (D^d) transgenic mice, anti-D^d mAb alone came to 897.
